The source of these data is patent publication US20220089743A1.

What all share (test): cell-based or functional assay
The target of assay [1] is HLA-DQ2.5 on IHW09023 cells loaded with 33 mer gliadin peptide (human; wheat).
Assay [2] concerns the target HLA-DQ2.5 on IHW09023 cells loaded with BC hordein peptide (human; barley).
In assay [3] the target is HLA-DQ2.5 on IHW09023 cells loaded with gamma 1 gliadin peptide (human; wheat).
Assay [4] deals with HLA-DQ2.5 on IHW09023 cells loaded with gamma 2 gliadin peptide (human; wheat).
For assay [5], the target named is HLA-DQ2.5 on IHW09023 cells loaded with gamma 3 gliadin peptide (human; wheat).
For assay [6], the target named is HLA-DQ2.5 on IHW09023 cells loaded with gamma 4a gliadin peptide (human; wheat).
In assay [7] the target is HLA-DQ2.5 on IHW09023 cells loaded with gamma 4d gliadin peptide (human; wheat).
Assay [8] addresses HLA-DQ2.5 on IHW09023 cells loaded with omega1/2 gliadin peptide (human; wheat).

B1: DQN034425 (antibody, V domains shown)
VH: QVQLVESGGGVVQPGRSLRLSCAASGFTFSSSYWMCWVRQAPGQGLEWMGCVYGGSDTTYYASWTKGRFTISRDNSKNTLYLQMNSLRAEDTAVYYCARDPLNYYYYGELNLWGQGTLVTVSS
VL: DIQMTQSPSSLSASVGDRVTITCQATENIYSGLAWYQQKPGKAPKLLIYYVSTLASGIPARFSGSGSGTDFTLTISSLEPEDFAVYYCQTYHDISNVTFGQGTKVEIK
Take B1: in assay [1], the IC50, α1a gliadin TCR, 250 nM 33mer gliadin was 0.0106 µg/mL; the IC50, α1b gliadin TCR, 250 nM 33mer gliadin was 0.0464 µg/mL; the IC50, α2 gliadin TCR, 250 nM 33mer gliadin turned out to be 0.00175 µg/mL. The IC50, BC hordein TCR, 250 nM BC hordein in assay [2] was above 20 µg/mL. In assay [3], this molecule showed an IC50, γ1 gliadin TCR, 250 nM γ1 gliadin above 20 µg/mL. In addition, in assay [4], the IC50, γ2 gliadin TCR, 250 nM γ2 gliadin is above 20 µg/mL. The IC50, γ3 gliadin TCR, 100 µM γ3 gliadin in assay [5] came out at 3.1 µg/mL. Also, the IC50, γ4a gliadin TCR, 25 µM γ4a gliadin in assay [6] is above 20 µg/mL. In assay [7], the IC50, γ4d gliadin TCR, 100 µM γ4d gliadin is above 20 µg/mL. In assay [8], this molecule gave an IC50, ω1 gliadin TCR, 25 µM ω1/2 gliadin of 0.00312 µg/mL and an IC50, ω2 gliadin TCR, 250 nM ω1/2 gliadin above 0.5 µg/mL.
